Laboratory results from US20170114099A1 (Affibody, published 2017).
Like-named read-outs stand apart in the source and are kept apart here.

Experiments:
Experiment in all cases: cell-based or functional assay
[1] = biological target: T1, human IL-6 receptor alpha (hIL-6Rα) (human, UniProt P08887 20-358, limits assumed)
T1 sequence (looked up): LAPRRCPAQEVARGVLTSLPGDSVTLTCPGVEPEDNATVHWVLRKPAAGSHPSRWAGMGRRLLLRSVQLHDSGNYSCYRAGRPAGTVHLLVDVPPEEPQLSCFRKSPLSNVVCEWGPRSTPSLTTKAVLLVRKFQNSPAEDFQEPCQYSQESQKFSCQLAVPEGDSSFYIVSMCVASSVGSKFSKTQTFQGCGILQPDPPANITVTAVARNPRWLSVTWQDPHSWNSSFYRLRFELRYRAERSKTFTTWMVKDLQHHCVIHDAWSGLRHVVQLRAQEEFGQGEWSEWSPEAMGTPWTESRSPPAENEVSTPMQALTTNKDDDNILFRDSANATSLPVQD

[2] = biological target: T2, cell surface IL-6 receptor on TF-1 cells (UniProt P08887 20-468, limits assumed)
T2 sequence (looked up): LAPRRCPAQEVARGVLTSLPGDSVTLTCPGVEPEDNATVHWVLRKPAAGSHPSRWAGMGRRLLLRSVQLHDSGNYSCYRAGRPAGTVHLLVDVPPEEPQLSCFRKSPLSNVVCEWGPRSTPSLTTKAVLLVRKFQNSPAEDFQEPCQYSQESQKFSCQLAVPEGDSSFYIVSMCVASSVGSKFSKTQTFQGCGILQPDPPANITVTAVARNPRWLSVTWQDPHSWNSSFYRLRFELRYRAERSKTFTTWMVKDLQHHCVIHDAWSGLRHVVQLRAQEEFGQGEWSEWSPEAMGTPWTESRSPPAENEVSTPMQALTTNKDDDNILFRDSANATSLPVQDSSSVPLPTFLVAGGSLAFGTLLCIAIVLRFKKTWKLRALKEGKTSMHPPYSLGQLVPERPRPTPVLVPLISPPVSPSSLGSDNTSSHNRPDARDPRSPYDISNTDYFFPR

[3] = biological target: T2, cell surface IL-6 receptor on TF-1 cells; remark: listed apart in the source

B1: tocilizumab (antibody, V domains shown)
VH: QVQLQESGPGLVRPSQTLSLTCTVSGYSITSDHAWSWVRQPPGRGLEWIGYISYSGITTYNPSLKSRVTMLRDTSKNQFSLRLSSVTAADTAVYYCARSLARTTAMDYWGQGSLVTVSS
VL: DIQMTQSPSSLSASVGDRVTITCRASQDISSYLNWYQQKPGKAPKLLIYYTSRLHSGVPSRFSGSGSGTDFTFTISSLQPEDIATYYCQQGNTLPYTFGQGTKVEIKR
For B1, the “IC50, inhibition of IL-6 trans-signaling dependent MCP-1 secretion by HUVECs” value [1] was about 5 nM, the “IC50 blocking the IL-6 dependent growth of TF-1 cells” value [2] was 0.3 nM and the “IC50 blocking the IL-6 dependent growth of TF-1 cells” value [3] was 0.41 nM.
